± gives the standard deviation of the averaged measurements.
B1: library; numbered along this chain (parent)
chain: MNIQIGELAKRTACPVVTIRFYEQEGLLPPPGRSRGNFRLYGEEHVERLQFIRHCRSLDMPLSDVRTLLSYRKRPDQDCGEVNMLLDEHIRQVESRIGALLELKHHLVELREACSGARPAQSCGILQGLSDCVCDTRGTTAHPSD

Tests used:
[1] = variants of: B1; assay: sfGFP reporter fluorescence (15 h) (µM FITC); higher = higher leak; conditions: library round: Round 0; ligand: none
Summary of the method: (§1)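 Readout was endpoint sfGFP fluorescence, converted to µM FITC through standard curves. Reactions were 1 μL of BL21 Star (DE3) PANOx-SP extract with pPbrR-sfGFP reporter, 30 μg/mL GamS and linear PbrR templates normalized to 5 nM, containing 1 µM lead chloride, 30 µM zinc acetate or no metal. Incubation lasted 15 hr at 30 °C, with up to three biological replicates.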

[2] = variants of: B1; assay: sfGFP reporter fluorescence (15 h) (µM FITC); higher = stronger transcriptional activation; conditions: library round: Round 0
Summary of the method: as §1

MNIQIGELAKRTACPVVTIRFYEQEGLLPPPGRSRGNFRLYGEEHVERLQFIRHCRSLDLPLSKVRTLLSYRKRPDQDCGEVNMLLDEHIRQVESRIGALLELKHHLVELREACSGARPAQSCGILQGLSDCVCDTRGTTAHPSD
sfGFP reporter fluorescence [1]: 0.916 ± 0.074
sfGFP reporter fluorescence ([2]; ligand: 1 µM Pb): 1.99 ± 0.24
sfGFP reporter fluorescence ([2]; ligand: 30 µM Zn): 4.629 ± 0.03

MNIQIGELAKRTACPVVTIRFYEQEGLLPPPGRSRGNFRLYGEEHVERLQFIRHCRSLDLPLSKVRTLLSYRKRPDQDCGEVNMLLDEHIRQVESRIGALLELKHHLVELREACSGARPAQSCGILQILSDCVCDTRGTTAHPSD
sfGFP reporter fluorescence [1]: 2.06 ± 0.074
sfGFP reporter fluorescence ([2]; ligand: 1 µM Pb): 3.47 ± 0.32
sfGFP reporter fluorescence ([2]; ligand: 30 µM Zn): 4.32 ± 0.22

MNIQIGELAKRTACPVVTIRFYEQEGLLPPPGRSRGNFRLYGEEHVERLQFIRHCRSLDLPLSKVRTLLSYRKRPDQDCGEVNMLLDEHIRQVESRIGALLELKHHLVELREACSGARPAQSCGILQMLSDCVCDTRGTTAHPSD
sfGFP reporter fluorescence [1]: 3.44 ± 0.06
sfGFP reporter fluorescence ([2]; ligand: 1 µM Pb): 4.33 ± 0.25
sfGFP reporter fluorescence ([2]; ligand: 30 µM Zn): 4.46 ± 0.12

MNIQIGELAKRTACPVVTIRFYEQEGLLPPPGRSRGNFRLYGEEHVERLQFIRHCRSLDLPLSKVRTLLSYRKRPDQDCGEVNMLLDEHIRQVESRIGALLELVHHLVELREACSGARPAQSCGILQGLSDCVCDTRGTTAHPSD
sfGFP reporter fluorescence [1]: 2.02 ± 0.17
sfGFP reporter fluorescence ([2]; ligand: 1 µM Pb): 4.2 ± 0.4
sfGFP reporter fluorescence ([2]; ligand: 30 µM Zn): 4.63 ± 0.11

MNIQIGELAKRTACPVVTIRFYEQEGLLPPPGRSRGNFRLYGEEHVERLQFIRHCRSLDLPLSKVRTLLSYRKRPDQDCGEVNMLLDEHIRQVESRIGALLELVHHLVELREACSGARPAQSCGILQILSDCVCDTRGTTAHPSD
sfGFP reporter fluorescence [1]: 2.23 ± 0.091
sfGFP reporter fluorescence ([2]; ligand: 1 µM Pb): 3.3 ± 0.69
sfGFP reporter fluorescence ([2]; ligand: 30 µM Zn): 4.17 ± 0.28

MNIQIGELAKRTACPVVTIRFYEQEGLLPPPGRSRGNFRLYGEEHVERLQFIRHCRSLDLPLSKVRTLLSYRKRPDQDCGEVNMLLDEHIRQVESRIGALLELVHHLVELREACSGARPAQSCGILQMLSDCVCDTRGTTAHPSD
sfGFP reporter fluorescence [1]: 3.37 ± 0.19
sfGFP reporter fluorescence ([2]; ligand: 1 µM Pb): 4.36 ± 0.31
sfGFP reporter fluorescence ([2]; ligand: 30 µM Zn): 3.8 ± 0.24

MNIQIGELAKRTACPVVTIRFYEQEGLLPPPGRSRGNFRLYGEEHVERLQFIRHCRSLDLPLSKVRTLLSYRKRPDQDCGEVNMLLDEHIRQVESRIGALLELVHHCVELREACSGARPAQSCGILQGLSDCVCDTRGTTAHPSD
sfGFP reporter fluorescence [1]: 3.73 ± 0.15
sfGFP reporter fluorescence ([2]; ligand: 1 µM Pb): 4.15 ± 0.39
sfGFP reporter fluorescence ([2]; ligand: 30 µM Zn): 3.44 ± 0.57

MNIQIGELAKRTACPVVTIRFYEQEGLLPPPGRSRGNFRLYGEEHVERLQFIRHCRSLDLPLSKVRTLLSYRKRPDQDCGEVNMLLDEHIRQVESRIGALLELKHHCVELREACSGARPAQSCGILQGLSDCVCDTRGTTAHPSD
sfGFP reporter fluorescence [1]: 5.66 ± 0.2
sfGFP reporter fluorescence ([2]; ligand: 1 µM Pb): 5.25 ± 0.066
sfGFP reporter fluorescence ([2]; ligand: 30 µM Zn): 5.27 ± 0.24

MNIQIGELAKRTACPVVTIRFYEQEGLLPPPGRSRGNFRLYGEEHVERLQFIRHCRSLDLPLSKVRTLLSYRKRPDQDCGEVNMLLDEHIRQVESRIGALLELKHHCVELREACSGARPAQSCGILQILSDCVCDTRGTTAHPSD
sfGFP reporter fluorescence [1]: 5.03 ± 0.22
sfGFP reporter fluorescence ([2]; ligand: 1 µM Pb): 4.57 ± 0.23
sfGFP reporter fluorescence ([2]; ligand: 30 µM Zn): 3.85 ± 0.9

MNIQIGELAKRTACPVVTIRFYEQEGLLPPPGRSRGNFRLYGEEHVERLQFIRHCRSLDLPLSKVRTLLSYRKRPDQDCGEVNMLLDEHIRQVESRIGALLELKHHCVELREACSGARPAQSCGILQMLSDCVCDTRGTTAHPSD
sfGFP reporter fluorescence [1]: 5.61 ± 0.24
sfGFP reporter fluorescence ([2]; ligand: 1 µM Pb): 4.82 ± 0.34
sfGFP reporter fluorescence ([2]; ligand: 30 µM Zn): 4.67 ± 0.83

MNIQIGELAKRTACPVVTIRFYEQEGLLPPPGRSRGNFRLYGEEHVERLQFIRHCRSLDLPLSDVRTLLSYRKRPDQDCGEVNMLLDEHIRQVESRIGALLELKHHLVELREACSGARPAQSCGILQILSDCVCDTRGTTAHPSD
sfGFP reporter fluorescence [1]: 0.336 ± 0.012
sfGFP reporter fluorescence ([2]; ligand: 1 µM Pb): 1.4 ± 0.016
sfGFP reporter fluorescence ([2]; ligand: 30 µM Zn): 3.625 ± 0.027

MNIQIGELAKRTACPVVTIRFYEQEGLLPPPGRSRGNFRLYGEEHVERLQFIRHCRSLDLPLSDVRTLLSYRKRPDQDCGEVNMLLDEHIRQVESRIGALLELKHHLVELREACSGARPAQSCGILQMLSDCVCDTRGTTAHPSD
sfGFP reporter fluorescence [1]: 0.939 ± 0.012
sfGFP reporter fluorescence ([2]; ligand: 1 µM Pb): 2.69 ± 0.78
sfGFP reporter fluorescence ([2]; ligand: 30 µM Zn): 4.69 ± 0.071

MNIQIGELAKRTACPVVTIRFYEQEGLLPPPGRSRGNFRLYGEEHVERLQFIRHCRSLDLPLSDVRTLLSYRKRPDQDCGEVNMLLDEHIRQVESRIGALLELVHHLVELREACSGARPAQSCGILQGLSDCVCDTRGTTAHPSD
sfGFP reporter fluorescence [1]: 0.255 ± 0.0057
sfGFP reporter fluorescence ([2]; ligand: 1 µM Pb): 1.1 ± 0.067
sfGFP reporter fluorescence ([2]; ligand: 30 µM Zn): 3.17 ± 0.1

MNIQIGELAKRTACPVVTIRFYEQEGLLPPPGRSRGNFRLYGEEHVERLQFIRHCRSLDLPLSDVRTLLSYRKRPDQDCGEVNMLLDEHIRQVESRIGALLELVHHLVELREACSGARPAQSCGILQILSDCVCDTRGTTAHPSD
sfGFP reporter fluorescence [1]: 0.312 ± 0.017
sfGFP reporter fluorescence ([2]; ligand: 1 µM Pb): 1.27 ± 0.04
sfGFP reporter fluorescence ([2]; ligand: 30 µM Zn): 3.28 ± 0.16
